# Measurements as given in US20050095655A1, “Solution-based methods for detecting MHC-binding peptides” (priority 2003, published 2005).
# Columns and labels:
# [1] = target: monomer HLA-A*0201/HIVpol (Homo sapiens, UniProt P04439, D140Y/D185E/D98H/E176V/E277Q/G131W/G231S/I119V/I121R/I166T/I218V/L300P/L318F/N151K/N90K/P208A/P217A/Q86G/Q94H/R138H/R169H/T345S); assay: Exchange of fluorescent tracer peptide on template monomer, no competitor
# [2] = target: monomer HLA-A*0201/CMVpp65 (Homo sapiens, UniProt P04439, D140Y/D185E/D98H/E176V/E277Q/G131W/G231S/I119V/I121R/I166T/I218V/L300P/L318F/N151K/N90K/P208A/P217A/Q86G/Q94H/R138H/R169H/T345S); assay: as above; details: after 120 h
substance,measurement,setting,value
FLPSDC(FITC)FPSV [HBVc-FITC],maximum percentage of exchange,[1],40%
same,% exchange,[2],about 80%
